Assay results as given in the RNAGym collection of RNA variant scans (doi:10.1073/pnas.2313332121).
Fewer inactive variants are shown than the library holds.

B1: TPR 5TU (parent)
chain: GGAUCUUCUCGAUCUAACAAAAAAGACAAAUCUGCCACAAAGCUUGAGAGCAUCUUCGGAUGCAGAGGCGGCAGCCUUCGGUGGCGCGAUAGCGCCAACGUUCUCAACUAUGACACGCAAAACGCGUGCUCCGUUGAAUGGAGUUUAUCAUG

Variants of: B1
Experiment: polymerase ribozyme fitness, log enrichment relative to wild type (log ratio); higher = more active; in vitro selection for triplet polymerase activity
Summary of the method: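 Each subunit of a heterodimeric triplet polymerase ribozyme was mutagenized into a library by PCR, transcribed, and subjected to one round of in vitro selection, run in triplicate. Libraries were annealed with a biotinylated primer, the partner subunit and triplets, incubated frozen at −7 °C, and extended constructs were gel-excised, captured on streptavidin beads and recovered by RT-PCR. Input and output libraries were sequenced on Illumina, keeping genotypes with ≥10 input reads and ≥1 read per output. Fitness is log base 2 of genotype enrichment divided by wild-type enrichment, from inverse-variance-weighted replicate averages.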
In the case of A47U C93G, the “polymerase ribozyme fitness (log ratio)” value is reported as -3.23.
With U45A C85U C118G A138U the “polymerase ribozyme fitness (log ratio)” value was -4.16.
In the case of G46A G86C C118U A122U, the “polymerase ribozyme fitness (log ratio)” value is reported as -3.45.
For G46A U55A C63U U111C C125A, the “polymerase ribozyme fitness (log ratio)” value was at most -4.2.
For U45A G50A U55G C87G G94C, the “polymerase ribozyme fitness (log ratio)” value was at most -4.2.
With A49C A115U the “polymerase ribozyme fitness (log ratio)” value was at most -4.2.
For A47U G62A U127C G133U, the “polymerase ribozyme fitness (log ratio)” value was at most -4.2.
In the case of G46A A52C U139G, the “polymerase ribozyme fitness (log ratio)” value is reported as -3.91.
For A47U G84U, the “polymerase ribozyme fitness (log ratio)” value was -1.78.
For U45G C116U, the “polymerase ribozyme fitness (log ratio)” value was 0.00932.
With A47C A89U A150G the “polymerase ribozyme fitness (log ratio)” value was -1.84.
With U45G G50A C54U A120C G126C the “polymerase ribozyme fitness (log ratio)” value was at most -4.2.
With A47C U53A C85G U139A the “polymerase ribozyme fitness (log ratio)” value was at most -4.2.
For G48C G62C C108G A137U U146A, the “polymerase ribozyme fitness (log ratio)” value was at most -4.2.
For A47C U53A C95U G136C, the “polymerase ribozyme fitness (log ratio)” value was -3.62.
With G48C A64G G70U G94U U144G C149A the “polymerase ribozyme fitness (log ratio)” value was at most -4.2.
In the case of G48C G59C G92U C99G A106U, the “polymerase ribozyme fitness (log ratio)” value is reported as at most -4.2.
For U44A U56A U61A A97U, the “polymerase ribozyme fitness (log ratio)” value was at most -4.2.
For U45A U109C, the “polymerase ribozyme fitness (log ratio)” value was -3.44.
With A49C A73G C93U U127A the “polymerase ribozyme fitness (log ratio)” value was at most -4.2.
For U44G A73G A91G A107C, the “polymerase ribozyme fitness (log ratio)” value was at most -4.2.
For A47C G83A C118U G133C U148C, the “polymerase ribozyme fitness (log ratio)” value was at most -4.2.
For A47U G83C A142G, the “polymerase ribozyme fitness (log ratio)” value was -2.42.
With U45A A106G the “polymerase ribozyme fitness (log ratio)” value was -1.7.
With G46U G59A G74A G84C U104C G112C U134G U145A the “polymerase ribozyme fitness (log ratio)” value was at most -4.2.
In the case of A47C U56A U78A U90G, the “polymerase ribozyme fitness (log ratio)” value is reported as at most -4.2.
With A47C G68A C96G C99A the “polymerase ribozyme fitness (log ratio)” value was at most -4.2.
For G46C C75G G88A C114U, the “polymerase ribozyme fitness (log ratio)” value was at most -4.2.
In the case of G48A C103A, the “polymerase ribozyme fitness (log ratio)” value is reported as -1.74.
With G46C U77G A142C the “polymerase ribozyme fitness (log ratio)” value was at most -4.2.
In the case of U44G G70C G83A C116A G152A, the “polymerase ribozyme fitness (log ratio)” value is reported as at most -4.2.
With U44G A73U C85A C99U A142C the “polymerase ribozyme fitness (log ratio)” value was at most -4.2.
With G46C U53A G92U U111G U134C the “polymerase ribozyme fitness (log ratio)” value was at most -4.2.
With G46U A120C the “polymerase ribozyme fitness (log ratio)” value was -0.32.
In the case of A47U A97C, the “polymerase ribozyme fitness (log ratio)” value is reported as 0.501.
For G48A C96U, the “polymerase ribozyme fitness (log ratio)” value was -0.356.
For G48A C96A, the “polymerase ribozyme fitness (log ratio)” value was -1.51.
For A47C C57G G58C, the “polymerase ribozyme fitness (log ratio)” value was 0.275.
With U45G C57A the “polymerase ribozyme fitness (log ratio)” value was 0.374.
For U45A G67A C79A A91U A121G, the “polymerase ribozyme fitness (log ratio)” value was at most -4.2.
With G48U U56A C87G U90C the “polymerase ribozyme fitness (log ratio)” value was -4.07.
For G46U G83U A119U C123A U145C, the “polymerase ribozyme fitness (log ratio)” value was -3.34.
For G46U A47C G58U C108U A119U G128U, the “polymerase ribozyme fitness (log ratio)” value was at most -4.2.
In the case of A47U C85A, the “polymerase ribozyme fitness (log ratio)” value is reported as -2.21.
In the case of A47U C85G, the “polymerase ribozyme fitness (log ratio)” value is reported as -2.65.
With A47G G68A C72U G81A A89G U148A the “polymerase ribozyme fitness (log ratio)” value was at most -4.2.
In the case of G46A C85U A89G C96A A106C U145C U146G, the “polymerase ribozyme fitness (log ratio)” value is reported as at most -4.2.
For G46A C96U, the “polymerase ribozyme fitness (log ratio)” value was 0.0159.
With G48U A73G the “polymerase ribozyme fitness (log ratio)” value was -1.15.
With A47G C87U U101C the “polymerase ribozyme fitness (log ratio)” value was 0.535.
With A47C G50A U53G C69G U77A C85A C103G A113G G136C the “polymerase ribozyme fitness (log ratio)” value was at most -4.2.
In the case of G48A A73G C87G A89U C96A G136A, the “polymerase ribozyme fitness (log ratio)” value is reported as at most -4.2.
For G46U G83A G143C, the “polymerase ribozyme fitness (log ratio)” value was -4.16.
In the case of G48A C125U, the “polymerase ribozyme fitness (log ratio)” value is reported as -0.97.
For G46A G143C, the “polymerase ribozyme fitness (log ratio)” value was -3.81.
With G48U G59U the “polymerase ribozyme fitness (log ratio)” value was 0.371.
For G48U U134G, the “polymerase ribozyme fitness (log ratio)” value was -2.34.
In the case of A47C C85G C96U C125U, the “polymerase ribozyme fitness (log ratio)” value is reported as at most -4.2.
With A47G U90A the “polymerase ribozyme fitness (log ratio)” value was -3.82.
With A47C C51U C54U A73C A122U the “polymerase ribozyme fitness (log ratio)” value was at most -4.2.
For G48A G84C G100C, the “polymerase ribozyme fitness (log ratio)” value was at most -4.2.
With G48A U56A C85U A110G G141U the “polymerase ribozyme fitness (log ratio)” value was at most -4.2.
With U44G C57G A91U A107G C125U U130C U135G the “polymerase ribozyme fitness (log ratio)” value was at most -4.2.
For A47U C76U A119C U139G, the “polymerase ribozyme fitness (log ratio)” value was -2.8.
For G48A G86C C123A C125G, the “polymerase ribozyme fitness (log ratio)” value was -3.94.
In the case of U45G G50C G81C C85A C118A, the “polymerase ribozyme fitness (log ratio)” value is reported as at most -4.2.
With G48A C57A the “polymerase ribozyme fitness (log ratio)” value was 0.284.
With U45A A52G C116G the “polymerase ribozyme fitness (log ratio)” value was -3.56.
For U45A A49G G83A C85U C99G U104C, the “polymerase ribozyme fitness (log ratio)” value was at most -4.2.
For G48U A52C C93U, the “polymerase ribozyme fitness (log ratio)” value was -3.41.
For A47C C96A C123G U151G, the “polymerase ribozyme fitness (log ratio)” value was at most -4.2.
For A47C U82G A142C, the “polymerase ribozyme fitness (log ratio)” value was -2.54.
In the case of G46C U101G A107U A137C, the “polymerase ribozyme fitness (log ratio)” value is reported as -4.12.
With U44C C54U the “polymerase ribozyme fitness (log ratio)” value was -3.56.
With G46C C57U U61G C75G A119U G141A the “polymerase ribozyme fitness (log ratio)” value was at most -4.2.
In the case of G46C G48A A73U U77C G80U C87U, the “polymerase ribozyme fitness (log ratio)” value is reported as -3.85.
For G46A A91G G136U, the “polymerase ribozyme fitness (log ratio)” value was at most -4.2.
In the case of G48C C51A C54A C63U G68A U77C G88A C96U A142G, the “polymerase ribozyme fitness (log ratio)” value is reported as at most -4.2.
In the case of U45A A52G C118A, the “polymerase ribozyme fitness (log ratio)” value is reported as -4.18.
With U45G G50A A73C C93U C96U C99A C108A G112C G124U U127G A142G C149G the “polymerase ribozyme fitness (log ratio)” value was at most -4.2.
In the case of G48C G80A C85U A120U A137G, the “polymerase ribozyme fitness (log ratio)” value is reported as at most -4.2.
In the case of G46A A97U U109G A121G U135C, the “polymerase ribozyme fitness (log ratio)” value is reported as at most -4.2.
With U45A G46C C85G G88C C93U A115C A150G the “polymerase ribozyme fitness (log ratio)” value was at most -4.2.
